fluorescein = fluorescein label (fluorescent marker on the peptide)
Legend:
HeLa cells [1] = assay: Cytotoxic effects observed during the uptake experiments (flow cytometry, live cell microscopy); type: cell-based, human; details: concentration range of up to 40 μM, mostly incubation times of less than one hour
HeLa cells [2] = assay: Cytotoxicity of hLF-peptide, cell viability by MTT test; type: cell-based, human; details: FIG. 6
Description: However, for live cell microscopy of peptide uptake mostly rather short incubation times of less than one hour were employed. It was therefore also tested whether for longer incubation times and higher concentrations, the peptide affected cell viability. HeLa cells were incubated with the hLF-peptide at concentrations ranging from 1.25 μM to up to 160 μM for either 6 or 0.5 hours. Afterwards cell viability was determined using an MTT test. The result thereof are depicted in FIG. 6.

Substance: Fluo-KCFQWQRNMRKVRGPPVSCIKR-CONH2 (fluorescein-KCFQWQRNMRKVRGPPVSCIKR-NH2; cysteine pairing not given here; listed as Homo sapiens) [hLF-peptide]
- cytotoxic effects in the uptake experiments (HeLa cells [1]): no cytotoxic effects could be observed
- cell viability (MTT) (HeLa cells [2]; after 6 hours, peptide concentrations higher than 5 μM): slightly reduced
- cell viability (MTT) (HeLa cells [2]; concentrations higher than 40 μM (tested up to 160 μM)): all cells were killed
- cytotoxicity (MTT cell viability) (HeLa cells [2]; incubated 30 minutes, concentrations up to 40 μM): no cytotoxicity was observed

Reference: patent publication US9403884B2, “Peptides useful as cell-penetrating peptides” (Evonik Roehm GmbH, priority 2005, dated 2016)
